Data from publication PMC549571.
Read-outs that look alike come from different tables or passages of the source.

Key:
Experiment in all cases: EMSA
TRF2ΔN [1] = target: T1, TRF2ΔN (Homo sapiens, UniProt Q15554 87-542)
TRF1 [2] = target: T2, TRF1 (Homo sapiens, UniProt P54274 1-439)
TRF1 [3] = target: T2, TRF1; remark: listed apart in the source
TRF1 [4] = target: T2, TRF1; remark: listed apart in the source
TRF2ΔN [5] = target: T1, TRF2ΔN; remark: listed apart in the source

T2 sequence (P54274 whole entry): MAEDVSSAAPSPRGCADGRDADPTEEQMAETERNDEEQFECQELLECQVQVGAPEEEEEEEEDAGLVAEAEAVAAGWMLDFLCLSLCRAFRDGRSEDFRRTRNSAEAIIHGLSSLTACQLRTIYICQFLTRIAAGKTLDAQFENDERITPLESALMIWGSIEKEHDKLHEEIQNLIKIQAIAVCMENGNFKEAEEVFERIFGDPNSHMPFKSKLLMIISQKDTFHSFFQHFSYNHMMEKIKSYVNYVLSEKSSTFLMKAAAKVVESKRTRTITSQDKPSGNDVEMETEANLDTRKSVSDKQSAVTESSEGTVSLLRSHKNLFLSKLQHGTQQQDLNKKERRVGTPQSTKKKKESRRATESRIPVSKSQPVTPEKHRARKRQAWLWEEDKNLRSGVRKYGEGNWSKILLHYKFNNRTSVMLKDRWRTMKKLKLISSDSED
T1 sequence (Q15554 87-542, stated change not applied): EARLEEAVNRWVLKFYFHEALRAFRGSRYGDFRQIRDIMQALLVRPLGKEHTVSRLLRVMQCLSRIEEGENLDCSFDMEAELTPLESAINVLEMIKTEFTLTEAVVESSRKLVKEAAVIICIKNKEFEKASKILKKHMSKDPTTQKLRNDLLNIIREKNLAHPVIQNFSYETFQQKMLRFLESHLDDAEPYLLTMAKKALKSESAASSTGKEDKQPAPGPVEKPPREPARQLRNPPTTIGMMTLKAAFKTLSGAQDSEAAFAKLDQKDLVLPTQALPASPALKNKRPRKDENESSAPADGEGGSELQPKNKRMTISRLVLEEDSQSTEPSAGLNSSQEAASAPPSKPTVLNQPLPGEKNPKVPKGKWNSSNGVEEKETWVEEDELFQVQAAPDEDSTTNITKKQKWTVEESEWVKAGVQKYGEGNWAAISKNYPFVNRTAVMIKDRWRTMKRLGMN

B1: CTRL (dsDNA)
DNA 1: GTGGATCCGTACTTAGGGTTAGGGTTAACACGAATTCGA
DNA 2: TCGAATTCGTGTTAACCCTAACCCTAAGTACGGATCCAC
**Q.** B1 was tested. Which binding signal (TRF2ΔN [1]) did it give?
**A.** 55 % bound at 100 nM TRF2ΔN

**Q.** What about the binding signal (TRF1 [2]) of the same binder?
**A.** 61 ± 6 % bound at 25 nM TRF1

B2: 8oxoG1 (dsDNA)
DNA 1: B1 DNA 1
DNA 2: B1 DNA 2
modifications: 8-oxoG at position 17 of strand 1
**Q.** Which binding signal (TRF2ΔN [1]) does the source give for B2 here?
**A.** 11 % bound at 100 nM TRF2ΔN

**Q.** And the binding signal (TRF1 [2])?
**A.** 31 ± 6 % bound at 25 nM TRF1

B3: 8oxoG2 (dsDNA)
DNA 1: B1 DNA 1
DNA 2: B1 DNA 2
modifications: 8-oxoG at positions 17, 18 of strand 1
**Q.** B3 was tested. Which binding signal (TRF2ΔN [1]) did it give?
**A.** 17 % bound at 100 nM TRF2ΔN

**Q.** What about the binding signal (TRF1 [2]) of the same binder?
**A.** 29 ± 2 % bound at 25 nM TRF1

B4: 8oxoG1-1 (dsDNA)
DNA 1: B1 DNA 1
DNA 2: B1 DNA 2
modifications: 8-oxoG at positions 17, 23 of strand 1
**Q.** For B4, which binding signal (TRF1 [3]) is on record?
**A.** 18 fold decrease in % bound vs control at 25 nM TRF1

B5: non-telomeric mixed (MXT/MXB) (dsDNA)
DNA 1: GTGGATCCGTACGATGGTTTTAGGTGAACACGAATTCGA
DNA 2: TCGAATTCGTGTTCACCTAAAACCATCGTACGGATCCAC
**Q.** Does B5 bind (TRF1 [4])?
**A.** no binding

**Q.** Does B5 bind (TRF2ΔN [5])?
**A.** no binding

B6: 8oxoG3 (dsDNA)
DNA 1: B1 DNA 1
DNA 2: B1 DNA 2
modifications: 8-oxoG at positions 16, 17, 18 of strand 1
**Q.** Which binding signal (TRF1 [2]) does the source give for B6 here?
**A.** 21 fold decrease in % bound vs control at 25 nM TRF1
